Target: pim1_human PIM1 (UniProt P11309)

Row | Substance | effect of a mutation on the interaction
1 | Small ribosomal subunit protein eS19 (Homo sapiens) (from UniProt P39019) R56Q | increasing interaction
2 | Small ribosomal subunit protein eS19 (Homo sapiens) (from UniProt P39019) R62W | increasing interaction
3 | Small ribosomal subunit protein eS19 (Homo sapiens) (from UniProt P39019) R101H | decreasing interaction
